Results reported in patent US20230331781A1, “PAR4 DERIVED PEPTIDES, ANALOGS AND USES THEREOF” (Yissum Research Development Company of the Hebrew …, priority 2019, published 2023).
Entries after “also recorded” stand apart in the source; their conditions may differ.

Key:
[1] = molecular target: T1, PAR4 and Akt (Homo sapiens, UniProt P31749); assay: Inhibition of binding of PAR4 to Akt by PAR4 C-tail peptides (FIG. 3A); assay type: cell-based; settings: MDA-MB-231 cells
T1 construct: endogenous in cells; host or cells: MDA-MB-231
Protocol: (§1) Experiments shown in FIG. 3A-3C were carried out in MDA-MB-231 cells. […] Unpaired Student's t test was used. This experiment is a representative of three independent experiments performed in triplicates. […] HEK 293T cells were transfected with wt flg-Par4 followed by AYPGKF activation of PAR4. IP was performed using anti fig abs of cells treated or not with CTP4-A peptide and immunoblotting with anti-Akt abs.
We evaluated the ability of these peptides to inhibit the binding of PAR4 to Akt protein. […] The PH-domain of Akt/PKB associates with PAR4. To elucidate whether Akt/PKB binds via its PH-domain, constructs of either wt Akt/PKB PH-domain were applied alone or an Akt/PKB-PH domain mutant R25C, impaired in its lipid binding capability of the Akt/PKB-PH domain. Transient transfections of flg-hPar4 and either wt GFP-PH-domain or PH-domain R25C mutant were carried out in HEK293 cells. Cells were activated by the PAR4 AYPGKF ligand for the indicated periods of time and the lysates were further processed for IP analysis. Distinct binding of GFP-Akt/PKB-PH domain module alone with the PAR4 C-tail was obtained (FIG. 4A). […] The mutant constructs (e.g., wt: YVSAEFRDKVRA; mutant F347L: YVSAELRDKVRA=PAR4MutF; mutant D349A: YVSAEFRAKVRA=PAR4MutD) were further evaluated for association with Akt/PKB. […]

[2] = test system: MDA-MB-231 cells; assay: PAR4 induced Matrigel invasion of MDA-MB-231 cells; assay type: cell-based, human; settings: AYPGKF activated MDA-MB-231 cells, FIGS. 3B and 3C
[3] = molecular target: T2, PAR4-Akt association (Homo sapiens, UniProt P31749); assay: PAR4-Akt association, immunoprecipitation in HEK293 cells transfected with flg-Par4 and AYPGKF activated; assay type: cell-based; settings: HEK 293T cells, wt flg-Par4, AYPGKF activation, FIG. 3D
T2 construct: FLAG; expressed in transfected cells
Protocol: as §1
FIG. 4A—PH-Akt module alone binds PAR4-C-tail but not mutant R25C. HEK 293 cells were transiently transfected with flg-Par4 construct and either with GFP-PH-Akt domain alone or GFP-R25C. IP of cell lysates following PAR4 AYPGKF activation was carried out using anti-flg abs. Detection of either Akt-PH domain alone associated with PAR4 was performed with anti-GFP. […] FIG. 4C—The PI3K inhibitor […] inhibits the binding of Akt to PAR4. Treatment of HEK 293 cells with LY294002 for various time points or not, following transient transfection with flg-Par4 and AYPGKF activation was performed. Cell lysates were immunoprecipitated with anti-flg antibodies, and anti-Akt was used to assess the association of Akt with the PAR4 C-tail. […] Amino acid residues of PAR4- and PAR2-PH binding motifs. FIG. 4E—mutations inserted into flg-Par4 generated flg-Par4MutE346A. HEK293 cells were transiently transfected with either wt flg-Par4 or flg-Par4MutE346A. IP of cell lysates following PAR4 activation was carried out using anti-flg abs. Detection of PAR4-Akt association was performed by anti Akt Abs. While association with wt Par4 is seen after 5 and 10 min AYPGKF PAR4 activation, when using flg-Par4 E346A no inhibition is seen and effective association with Akt is seen at 30 min activation. FIG. 4F—utations inserted into flg-Par4 generated flg-Par4Mut F347A and flg-Par4Mut D349A. HEK293 cells were transiently transfected with either wt flg-Par4 or flg-Par4Mut F347A or flg-Par4Mut D349A. IP of cell lysates following PAR4 activation was carried out using anti-f/g abs. Detection of PAR4-Akt association was performed by anti Akt Abs. While association with wt Par4 is seen after 5 min AYPGKF PAR4 activation, no such binding is obtained when using either flg-Par4 F347A or flg-Par4D349A.
HEK293 cells were transiently transfected with flg-Par4 followed by AYPGKF PAR4 activation in the presence and absence of PAR4c (4-4) within the range of 50 nM-150 μM. IP of cell lysates following different periods of activation was carried out using anti flg abs. Detection of Akt was performed by anti Akt abs. β-actin serves as a control gene for loading. […] Matrigel invasion before and after AYPGKF PAR4 activation and in the presence and absence of PAR4 c(4-4) inhibitor in the activated PAR4 cells. […] FIG. 8C—Histograms represent quantification of the cells/HPF invaded the Matrigel layer. […]

[4] = molecular target: T3, Akt/PKB (protein kinase B) (UniProt P31749 1-480, limits assumed); assay: co-IP: anti-flg IP from HEK293 cells transfected with the mutant, anti-Akt blot (FIG. 4F)
T3 construct: Endogenous Akt of human cell lines
Protocol: FIG. 4A—PH-Akt module alone binds PAR₄-C-tail but not mutant R25C. HEK 293 cells were transiently transfected with flg-Par4 construct and either with GFP-PH-Akt domain alone or GFP-R25C. IP of cell lysates following PAR₄ AYPGKF activation was carried out using anti-flg abs. Detection of either Akt-PH domain alone associated with PAR₄ was performed with anti-GFP. […] FIG. 4C—The PI3K inhibitor […] inhibits the binding of Akt to PAR₄. Treatment of HEK 293 cells with LY294002 for various time points or not, following transient transfection with flg-Par4 and AYPGKF activation was performed. Cell lysates were immunoprecipitated with anti-flg antibodies, and anti-Akt was used to assess the association of Akt with the PAR₄ C-tail. […] Amino acid residues of PAR₄- and PAR₂-PH binding motifs. FIG. 4E—mutations inserted into flg-Par4 generated flg-Par4MutE346A. HEK293 cells were transiently transfected with either wt flg-Par4 or flg-Par4MutE346A. IP of cell lysates following PAR₄ activation was carried out using anti-flg abs. Detection of PAR₄-Akt association was performed by anti Akt Abs. While association with wt Par4 is seen after 5 and 10 min AYPGKF PAR₄ activation, when using flg-Par4 E346A no inhibition is seen and effective association with Akt is seen at 30 min activation. FIG. 4F—utations inserted into flg-Par4 generated flg-Par4Mut F347A and flg-Par4Mut D349A. […]

T2 sequence (P31749 whole entry): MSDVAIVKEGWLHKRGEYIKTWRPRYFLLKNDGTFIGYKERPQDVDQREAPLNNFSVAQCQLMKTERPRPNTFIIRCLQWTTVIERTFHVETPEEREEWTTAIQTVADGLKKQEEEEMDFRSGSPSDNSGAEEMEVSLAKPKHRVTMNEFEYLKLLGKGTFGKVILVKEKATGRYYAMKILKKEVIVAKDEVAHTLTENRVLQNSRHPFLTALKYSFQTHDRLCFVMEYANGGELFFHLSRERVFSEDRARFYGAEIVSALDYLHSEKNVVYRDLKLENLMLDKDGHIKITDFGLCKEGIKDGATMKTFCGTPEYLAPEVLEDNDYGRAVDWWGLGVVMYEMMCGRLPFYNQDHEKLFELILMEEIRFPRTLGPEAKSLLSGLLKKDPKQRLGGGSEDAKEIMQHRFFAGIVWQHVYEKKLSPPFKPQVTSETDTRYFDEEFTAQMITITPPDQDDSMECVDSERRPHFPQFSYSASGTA
T1 sequence (P31749 whole entry): as above
T3 sequence (P31749 whole entry): as above

H-YVSAEFRDKVRA-OH [Peptide 1]
inhibition of interaction between PAR4 and Akt [1]: effectively inhibited
inhibition of PAR4 induced Matrigel invasion ([2]; listed as CTP4-A): significantly inhibit; also recorded: attenuated
inhibition of PAR4-Akt association (IP) ([3]; listed as CTP4-A): inhibited; also recorded: potently inhibits

H-DTVASKASAEGG-OH [CTP4-C, downstream PAR4 C-tail peptide]
inhibition of PAR4 induced Matrigel invasion [2]: no effect

H-RAGLFQRSPGDT-OH [CTP4-B, downstream PAR4 C-tail peptide]
inhibition of PAR4 induced Matrigel invasion [2]: no effect
inhibition of PAR4-Akt association (IP) [3]: not

B1: hPar4 D349A (receptor, human, UniProt Q96RI0 48-385, looked up)
chain: GYPGQVCANDSDTLELPDSSRALLLGWVPTRLVPALYGLVLVVGLPANGLALWVLATQAPRLPSTMLLMNLAAADLLLALALPPRIAYHLRGQRWPFGEAACRLATAALYGHMYGSVLLLAAVSLDRYLALVHPLRARALRGRRLALGLCMAAWLMAAALALPLTLQRQTFRLARSDRVLCHDALPLDAQASHWQPAFTCLALLGCFLPLLAMLLCYGATLHTLAASGRRYGHALRLTAVVLASAVAFFVPSNLLLLLHYSDPSPSAWGNLYGAYVPSLALSTLNSCVDPFIYYYVSAEFRAKVRAGLFQRSPGDTVASKASAEGGSRGMGTHSSLLQ
notes: whole, on cells; also called PAR4MutD; flg-Par4Mut D349A
binding result [4]: no binding
